Consider 15 substances from patent US20220273789A1.

Assay [1] deals with human IgG (human). In words: BLI (Octet), gEgI on Ni-NTA sensor, hIgG in solution.
The target in assay [2] is human IgG (human). As to the kind of experiment: BLI Octet, construct on Ni-NTA sensor, hIgG in solution.

In the assay with human IgG (human) [1], “HSV2-gE_H245S P319G_gI (from UniProt P89475 21-416; P06764 21-256) (receptor)” showed a Kd of 363 nM, a Response of 0.313 nm, a koff of 0.0027 s⁻¹ and a kon of 7440 M⁻¹ s⁻¹.

In the assay with human IgG (human) [1], “HSV2-gE_H245S P319L_gI (from UniProt P89475 21-416; P06764 21-256) (receptor)” returned a Kd of 292 nM, a Response of 0.323 nm, a koff of 0.0019 s⁻¹ and a kon of 6520 M⁻¹ s⁻¹.

On to “HSV2-gE_P317F S338G_gI (from UniProt P89475 21-416; P06764 21-256) (receptor)”, for which, in the assay with human IgG (human) [1], the equilibrium dissociation constant (Kd) turned out to be 399 nM, the Response turned out to be 0.153 nm, the koff stood at 0.00248 s⁻¹ and the kon turned out to be 6220 M⁻¹ s⁻¹.

In the assay with human IgG (human) [2], “HSV2-gE_R320S_gI (from UniProt P89475 21-416; P06764 21-256) (receptor)” displayed a Kd of 1050 nM, a Response (nm) of 0.343 nm, a koff of 0.00547 s⁻¹ and a kon of 5190 M⁻¹ s⁻¹.

On to “HSV2-gE_R320T_gI (from UniProt P89475 21-416; P06764 21-256) (receptor)”, for which, in the assay with human IgG (human) [2], the Kd was determined as 606 nM, the Response (nm) is 0.37 nm, the dissociation rate constant (koff) was determined as 0.0042 s⁻¹ and the on-rate constant (kon) was determined as 6940 M⁻¹ s⁻¹.

In the assay with human IgG (human) [2], “HSV2-gE_R320V_gI (from UniProt P89475 21-416; P06764 21-256) (receptor)” gave a Kd of 469 nM, a Response (nm) of 0.52 nm, a koff of 0.00425 s⁻¹ and a kon of 9060 M⁻¹ s⁻¹.

As to “HSV2-gE_S338E_gI (from UniProt P89475 21-416; P06764 21-256) (receptor)”, in the assay with human IgG (human) [2], the Kd stood at 348 nM, the Response (nm) was determined as 0.616 nm, the koff turned out to be 0.0043 s⁻¹ and the kon worked out at 12300 M⁻¹ s⁻¹.

For “HSV2-gE_S338G_gI (from UniProt P89475 21-416; P06764 21-256) (receptor)”, in the assay with human IgG (human) [2], the dissociation constant Kd was found to be 339 nM, the Response (nm) was 0.562 nm, the koff stood at 0.00438 s⁻¹ and the association rate constant (kon) was determined as 12900 M⁻¹ s⁻¹.

With “HSV2-gE_S338L_gI (from UniProt P89475 21-416; P06764 21-256) (receptor)”, in the assay with human IgG (human) [2], the Kd is 439 nM, the Response (nm) was 0.467 nm, the koff stood at 0.00223 s⁻¹ and the kon was 5080 M⁻¹ s⁻¹.

In the assay with human IgG (human) [2], “HSV2-gE_S338T_gI (from UniProt P89475 21-416; P06764 21-256) (receptor)” gave a Kd of 186 nM, a Response (nm) of 0.785 nm, a koff of 0.00254 s⁻¹ and a kon of 13600 M⁻¹ s⁻¹.

With “HSV2-gE_V340A_gI (from UniProt P89475 21-416; P06764 21-256) (receptor)”, in the assay with human IgG (human) [2], the Kd was 474 nM, the Response (nm) is 0.356 nm, the koff came out at 0.00422 s⁻¹ and the kon turned out to be 8910 M⁻¹ s⁻¹.

Turning to “HSV2-gE_V340M_gI (from UniProt P89475 21-416; P06764 21-256) (receptor)”, in the assay with human IgG (human) [2], the Kd is 278 nM, the Response (nm) came to 0.621 nm, the koff is 0.00399 s⁻¹ and the kon came out at 14300 M⁻¹ s⁻¹.

In the assay with human IgG (human) [2], “HSV2-gE_V340P_gI (from UniProt P89475 21-416; P06764 21-256) (receptor)” showed a Kd of 321 nM, a Response (nm) of 0.566 nm, a koff of 0.00465 s⁻¹ and a kon of 14500 M⁻¹ s⁻¹.

For the substance “HSV2-gE_V340Q_gI (from UniProt P89475 21-416; P06764 21-256) (receptor)”, in the assay with human IgG (human) [2], the Kd was found to be 239 nM, the Response (nm) turned out to be 0.32 nm, the koff stood at 0.00218 s⁻¹ and the kon worked out at 9090 M⁻¹ s⁻¹.

In the assay with human IgG (human) [2], “HSV2-gE_V340R_gI (from UniProt P89475 21-416; P06764 21-256) (receptor)” gave a Kd of less than 0.001 nM, a Response (nm) of 0.201 nm, an off-rate (koff) of less than 1e-07 s⁻¹ and a kon of 6650 M⁻¹ s⁻¹.
